In the test the target is human Siglec-15, full length, expressed on cells (human) (UniProt Q6ZMC9). The test is described as follows: flow cytometry, THP-1 cells overexpressing human Siglec-15, ADC titrated, anti-human IgG-PE, gMFI. (Flow cytometry measures light scatter and fluorescence of single cells or particles in a stream.)

Experimental findings from patent US20250361297A1, “ANTI- SIGLEC-15 BINDING MOLECULES AND METHODS OF USE” (ADAPTAM THERAPEUTICS, S.L., priority 2024, published 2025) are described below.

Sequence of human Siglec-15, full length, expressed on cells (human) (Q6ZMC9 20-328 limits assumed): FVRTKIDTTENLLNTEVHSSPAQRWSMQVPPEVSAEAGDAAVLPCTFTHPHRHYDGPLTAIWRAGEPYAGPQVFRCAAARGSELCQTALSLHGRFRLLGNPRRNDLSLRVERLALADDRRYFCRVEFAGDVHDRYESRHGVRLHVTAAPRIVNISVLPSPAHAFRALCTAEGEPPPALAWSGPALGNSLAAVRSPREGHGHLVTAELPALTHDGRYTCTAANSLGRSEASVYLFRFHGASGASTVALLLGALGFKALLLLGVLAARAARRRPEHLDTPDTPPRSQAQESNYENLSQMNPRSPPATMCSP

B1: ZLA-1243-E01-Exatecan (protein)
VH: QVQLVQSGGGLVQPGRSLRLSCAASGFTFDDYAMHWVRQAPGKGLEWVSGISWNSGSIGYADSVKGRFTISRDNAKNSLYLQMNSLRAEDTALYYCAKGLWPSYDLDAFDIWGQGTMVTVSS
VL: QSALTQPASVSGSPGQSITLSCTGTSSDVGAYNFVSWYQQHPGTAPKLMIYEVSNRPSGVSDRFSGSKSGNTASLTISGLQAEDEADYYCSSYTSTIPPFVFGTGTKVTVL
modifications: Antibody-drug conjugate: exatecan payload joined through an MC-GGFG linker. The attachment residues are not stated and the letters cannot carry the payload.
On to B1, for which the EC50 (read off the curve) – broadly, the concentration at which the effect is half-maximal – came to 3 nM. That is a single-digit nanomolar value.
